{
  "source": "patent US8546531B2",
  "about": "“Methods and reagents for preparing multifunctional probes” (The General Hospital Corporation, priority 2008, dated 2013)",
  "tested_on": "integrin-expressing B16F0 melanoma",
  "conditions": "mouse, in vivo, iv",
  "description": "Approximately 1·10^6 B16F0 murine melanoma cells (from C57BL6 mice) in PBS (40 μL) were injected s.c. into the right hind paw of 6-8 weeks female C57BL6 mice (Charles River Laboratories). After 4 weeks, tumors reached a size suitable for nuclear imaging experiments.\nSPECT imaging co-registered with high-resolution CT was performed on a X-SPECT™ system (Gamma Medica, Northridge, Calif., USA). The SPECT system has two gamma cameras, equipped with 1 mm diameter medium-energy pinhole collimators. The solid state CT is mounted on the same gantry as the gamma cameras enabling high quality image fusion. The SPECT images were reconstructed using OSEM (ordered subsets expectation maximization) and CT images were reconstructed using a modified Feldkamp cone-beam reconstruction algorithm (COBRA). The ^111In-MSAP-RGD probe (300 μCi in 150 μL) was injected (iv, tail vein) and after 2 hours mice were anesthetized (isoflurane). CT (256 projections, 50 kV, 0.5 mA) was performed followed by a SPECT acquisition with parameters of 64 projections, 30-120 seconds per projection and a radius of rotation of 3.5 cm giving a resolution of 1.8 mm. […] Mean SPECT pixel intensity and tumor volumes were determined by designing regions of interest (ROIs) on the hind paws of the micrometer resolution CT scans and extrapolating these ROIs to the fused SPECT data using Osirix software. […]",
  "data": [
    {"smiles": "N=C(N)NCCC[C@@H]1NC(=O)[C@H](CCCCNC(=O)CCCN2C(=O)CC(SC[C@H](NC(=O)[C@H](CCCCNC(=O)CCCCCNc3ccc([N+](=O)[O-])c4nonc34)NC(=O)CN(CCN(CC(=O)O)CC(=O)O)CCN(CC(=O)O)CC(=O)O)C(N)=O)C2=O)NC(=O)[C@@H](Cc2ccccc2)NC(=O)[C@H](CC(=O)O)NC(=O)CNC1=O", "note": "(stereo partly shown) (111In complex, metal not drawn) [MSAP-RGD probe]", "values": [
      {"measurement": "distribution of the probe within the tumor", "result": "occurred in parts of the tumor with high CD31 (endothelial cell maker) levels and CD11b (monocytes/macrophages marker) levels"}
    ]}
  ]
}
